Data taken from paper PMC10369405 (JACS Au, 2023).

Target: T1, full-length human Gasdermin D (human, UniProt P57764 1-484)
T1 construct: Gasdermin D, human, UniProt P57764, 484 residues (53 kDa); His6-SUMO tag removed with Ulp1 protease and anion exchange; also called hGSDMD; GSDMD; source: E. coli BL21 (DE3) Gold, purified (HisTrap, Ulp1 cleavage, anion exchange, Superdex 75)
T1 sequence (looked up): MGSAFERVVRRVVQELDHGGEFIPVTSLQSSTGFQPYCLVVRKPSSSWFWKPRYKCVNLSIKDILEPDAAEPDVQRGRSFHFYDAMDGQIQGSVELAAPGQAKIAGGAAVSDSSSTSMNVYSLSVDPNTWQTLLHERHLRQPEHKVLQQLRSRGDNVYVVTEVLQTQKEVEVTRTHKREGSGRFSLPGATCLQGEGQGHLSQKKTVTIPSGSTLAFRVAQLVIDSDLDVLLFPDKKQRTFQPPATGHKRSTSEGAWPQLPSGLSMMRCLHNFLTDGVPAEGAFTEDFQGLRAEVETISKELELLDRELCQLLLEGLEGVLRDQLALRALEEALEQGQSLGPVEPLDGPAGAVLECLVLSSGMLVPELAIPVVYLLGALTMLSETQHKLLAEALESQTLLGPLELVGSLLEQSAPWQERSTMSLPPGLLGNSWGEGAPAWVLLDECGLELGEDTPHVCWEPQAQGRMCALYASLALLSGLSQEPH
Experiment: native gel or EMSA; native-PAGE, 12% polyacrylamide, 150 V, 25 mM Tris-HCl, 192 mM glycine, pH 8.3; Caspase-1 alone (40 uM), GSDMD alone (40 uM), GSDMD/Caspase-1 at 1:1 and 2:1 equivalents, with and without 20 mM NaTDB
Conditions: both partners purified

binding result: binds
B1: human Caspase-1 (C285A) p20/p10 dimer (complex)
chain 1: NPAMPTSSGSEGNVKLCSLEEAQRIWKQKSAEIYPIMDKSSRTRLALIICNEEFDSIPRRTGAEVDITGMTMLLQNLGYSVDVKKNLTASDMTTELEAFAHRPEHKTSDSTFLVFMSHGIREGICGKKHSEQVPDILQLNAIFNMLNTKNCPSLKDKPKVIIIQAARGDSPGVVWFKD
chain 2: AIKKAHIEKDFIAFCSSTPDNVSWRHPTMGSVFIGRLIEHMQEYACSCDVEEIFRKVRFSFEQPDGRAQMPTTERVTLTRCFYLFPGH
notes: peptides 279-286 and 287-297 are assigned to it; Caspase-1 p10 subunit (p10 fragment), human; peptides 342-352, 375-383 and 384-391 are assigned to it; Polycistronic vector encoding an N-terminal His-tag; also called hCaspase-1 (C285A); protease C285A
